B1: IL-4: IL-4, used as a stimulus for Daudi or Ramos B-cells (protein, UniProt P05112 25-153, looked up)
Interleukin-4: HKCDITLQEIIKTLNSLTEQKTLCTELTVTDIFAASKNTTEKETFCRAATVLRQFYSHHEKDTRCLGATAQQFHRHKQLIRFLKRLDRNLWGLAGLNSCPVKEANQSTLENFLERLKTIMREKYSKCSS

Experiments:
Assay type in all cases: cell-based
[1] = system: Jurkat cells; experiment: Anti-phosphotyrosine capture assay of tyrosine kinase activity after SDF-1α stimulation for various times; conditions: 37° C., 100 nM SDF-1α, various time intervals, FIG. 2
Protocol: (§1) 96-well polystyrene plates were coated with an anti-phosphotyrosine antibody, pY99 (Santa Cruz Biotech, Inc., Santa Cruz, Calif.), by adding 200 μl of an antibody solution in Tris buffered saline (TBS) pH 8.0 at a concentration of 2.5 μg/ml. The plates were incubated for three hours at room temperature. The plates were then rinsed and 300 μl of blocking solution, sold under the trademark, SUIPERBLOCK® (Pierce Chemical, Rockford, Ill.) was added and the plates were incubated for two hours. At this point, the plates may be stored at 4° C. for up to two weeks. […]
To assay the cell lysates for kinase activity, the plate was thawed at 37° C., and 100 μl of tris buffered saline with 0.1% Tween 20 was added to each well. […] Relative phosphorylated protein levels were detected by adding 100 μl of a 0.2 μg/ml solution of europium-chelate labeled anti-phosphotyrosine antibody in tris buffered saline (pH 8.0) to each well and allowing the plate to incubate for one hour with shaking. […] Enhancement Solution for measuring Eu^3+ (E. G. & G. Wallac, Turku, FI) was added and the amount of labeled antibody bound was measured using a time-resolved fluorescence plate reader, for example, a Wallac 1420, or Victor MLC (Wallac Oy, Turku, FI). […]

[2] = system: Daudi B cells; experiment: Anti-phosphotyrosine capture assay (time-resolved fluorescence) of tyrosine phosphorylation in stimulated B-cells; conditions: ligand 100 ng/ml, 15 minutes, FIG. 1
Protocol: as §1
(§2) To assay the cell lysates for kinase activity, the plate was thawed at 37° C., and 100 μl of tris buffered saline with 0.1% Tween 20 was added to each well. […] Relative phosphorylated protein levels were detected by adding 100 μl of a 0.2 μg/ml solution of europium-chelate labeled anti-phosphotyrosine antibody in tris buffered saline (pH 8.0) to each well and allowing the plate to incubate for one hour with shaking. […] Enhancement Solution for measuring Eu^3+ (E. G. & G. Wallac, Turku, FI) was added and the amount of labeled antibody bound was measured using a time-resolved fluorescence plate reader, for example, a Wallac 1420, or Victor MLC (Wallac Oy, Turku, FI).

[3] = system: Ramos B cells; experiment: as above; conditions: ligand 100 ng/ml, 15 minutes, FIG. 1
Protocol: as §1, §2

Molecule	tyrosine kinase activity (fluorescence) as time increases [1]	changes in tyrosine phosphorylation on stimulation [2]	changes in tyrosine phosphorylation on stimulation [3]
SDF-1α	decrease in kinase activity	–	–
B1	–	not significantly	not significantly
